Biological target: T1, (His)6-YycF, non-phosphorylated response regulator (Streptococcus pneumoniae TIGR4) (UniProt A0A0H2UQ68)
T1 sequence: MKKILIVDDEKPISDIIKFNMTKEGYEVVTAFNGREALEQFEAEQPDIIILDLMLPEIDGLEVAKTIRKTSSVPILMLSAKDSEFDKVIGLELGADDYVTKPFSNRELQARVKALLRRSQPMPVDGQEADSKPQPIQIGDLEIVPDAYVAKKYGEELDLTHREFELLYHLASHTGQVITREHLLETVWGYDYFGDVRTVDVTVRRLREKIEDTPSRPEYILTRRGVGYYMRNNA
Test: EMSA
Conditions: EMSA: 50 mM Tris-HCl pH 7.8, 500 mM NaCl, 4 mM MgCl2, 20 uL, 0.5-1.0 nM DNA, 0°C 30 min; 5% native PAGE, TBE, 4°C

In the case of “CATTCGGAGAGAAGAAGACCTAAATTTACAGGAAAATAAAAAATACTTGCATCATTCTTTGAATTTTGATATAATTCTTTCTGTCAAATGTTTTGATTGTAAAAGTTTTTTGAAGAAGGAGGGATATGAAAAATGGACTACCAACGAATCAATGAATATTTAACATCTATATTTAACAATGTCCTTGTAATTGAGG (double strand) [amplicon A (PFabT promoter region)]”, the binding is reported as “binds”.

Source: paper PMC4996995
